Consider 16 molecules from patent publication US20250011433A1 (GLIKNIK, published 2025).

In one assay the target is T1, FcγRI (UniProt P12314 16-288).
T1 construct: also called CD64
Briefly: BLI (Octet). The procedure: (§1) Binding of complement-preferential stradomers or parent stradomer G045c to FcγRI, FcγRIIb, FcγRIIIa, FcγRIIa, or FcRn was assessed. RU values of dissociation were measured by biolayer interferometry using a ForteBio Octet instrument. His-tagged receptor proteins were bound to the sensor tip in 1× kinetic analysis buffer from ForteBio after which the on rate of the receptor/protein was measured by transferring the sensor tip to a 1× kinetics buffer containing the purified stradomer of choice. Off rate was measured by transferring the sensor tip to a 1× kinetics buffer, and RU value was calculated from the measured maximum binding using the ForteBio software. Biolayer interferometry detects the binding between a ligand immobilized on the biosensor tip surface and an analyte in solution. When binding occurs it produces an increase in optical thickness at the biosensor tip, which results in a wavelength shift (detected as a response unit of “RU”). The maximum binding level (RU max) is the maximum possible amount of sample binding at equilibrium that saturates the amount of ligand on the sensor surface. The RU 300 is the residual sample binding after 300 seconds of dissociation and is useful to characterize the rate of dissociation of the test article from the test ligand.
(§2) For each stradomer in Tables 5-9, the level of canonical FcγR binding, complement C1q binding, and CDC inhibition were determined according to the methods described in Example 1.
On the technique in general: In BLI a coated tip is dipped into the sample, and binding shifts an interference pattern.

The target of another assay is T2, FcγRIIb (UniProt P31994 46-217, limits assumed).
T2 sequence (looked up): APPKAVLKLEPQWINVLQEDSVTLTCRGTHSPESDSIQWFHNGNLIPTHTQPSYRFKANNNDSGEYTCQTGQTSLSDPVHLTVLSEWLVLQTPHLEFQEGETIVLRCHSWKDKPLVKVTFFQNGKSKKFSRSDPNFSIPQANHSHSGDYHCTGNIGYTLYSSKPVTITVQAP
Briefly: BLI (Octet). The procedure: as §1, §2

In the next assay the target is C1q (UniProt P02745 23-245; P02746 28-253; P02747 29-245). The experiment in a line: cell-based or functional assay.
Chain of C1q (P02745 23-245 limits assumed, chain 1 of 3): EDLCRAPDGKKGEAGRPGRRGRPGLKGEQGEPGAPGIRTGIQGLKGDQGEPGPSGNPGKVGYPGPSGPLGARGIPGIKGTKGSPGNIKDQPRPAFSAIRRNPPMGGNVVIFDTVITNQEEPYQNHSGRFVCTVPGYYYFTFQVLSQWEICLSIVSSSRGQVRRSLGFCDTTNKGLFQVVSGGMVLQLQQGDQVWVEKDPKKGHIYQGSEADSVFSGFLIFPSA
Chain of C1q (P02746 28-253 limits assumed, chain 2 of 3): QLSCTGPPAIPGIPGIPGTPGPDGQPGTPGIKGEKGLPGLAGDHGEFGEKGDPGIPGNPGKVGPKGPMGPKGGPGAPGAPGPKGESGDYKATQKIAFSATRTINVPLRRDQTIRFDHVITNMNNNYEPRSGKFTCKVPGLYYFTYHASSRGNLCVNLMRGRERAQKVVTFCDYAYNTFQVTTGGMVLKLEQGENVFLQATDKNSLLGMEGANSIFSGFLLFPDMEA
Chain of C1q (P02747 29-245 limits assumed, chain 3 of 3): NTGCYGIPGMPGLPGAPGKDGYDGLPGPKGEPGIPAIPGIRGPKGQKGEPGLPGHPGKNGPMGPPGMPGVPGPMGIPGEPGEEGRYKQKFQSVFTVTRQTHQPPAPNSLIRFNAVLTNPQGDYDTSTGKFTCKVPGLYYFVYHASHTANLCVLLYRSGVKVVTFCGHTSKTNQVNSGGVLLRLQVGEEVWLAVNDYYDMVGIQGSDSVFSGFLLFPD

T1 sequence (P12314 16-288 limits assumed): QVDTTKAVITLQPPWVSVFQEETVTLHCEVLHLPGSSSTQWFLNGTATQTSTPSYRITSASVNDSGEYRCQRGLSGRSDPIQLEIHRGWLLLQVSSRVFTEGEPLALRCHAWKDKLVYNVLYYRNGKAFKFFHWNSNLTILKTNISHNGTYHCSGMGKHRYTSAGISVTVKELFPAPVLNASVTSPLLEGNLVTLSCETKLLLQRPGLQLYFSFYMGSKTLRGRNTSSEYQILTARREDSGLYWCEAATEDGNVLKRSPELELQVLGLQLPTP

B1: G1068 (Fc fusion)
chain: EPKSCDKTHTCPPCPAPELLGGPSVFLFPPKPKDTLMISRTPEVTCVVVDVEFEDPEVKFNWYVDGVEVHNAKTKPREEQYNSAYRVVSVLTVLHQDWLNGKEYKCKVTNKALPAPIEKTISKAKGQPREPQVYTLPPSRDELTKNQVSLTCLVKGFYPSDIAVEWESNGQPENNYKTTPPVLDSDGSFFLYSKLTVDKSRWQQGNVFSCSVMHEALHNHYTQKSLSLSPGKERKCCVECPPCP
notes: G045c background, S267E/H268F/S324T/T299A; leader 1-20 cleaved
On to B1, for which the binding result with FcγRI and in the assay with FcγRIIb was “binds” throughout.

B2: G1074 (Fc fusion)
chain: EPKSCDKTHTCPPCPAPELLGGPSVFLFPPKPKDTLMISRTPEVTCVVVDVDFEDPEVKFNWYVDGVEVHNAKTKPREEQYASTYRVVSVLTVLHQDWLNGKEYKCKVTNKALPAPIEKTISKAKGQPREPQVYTLPPSRDELTKNQVSLTCLVKGFYPSDIAVEWESNGQPENNYKTTPPVLDSDGSFFLYSKLTVDKSRWQQGNVFSCSVMHEALHNHYTQKSLSLSPGKERKCCVECPPCP
notes: G045c background, S267D/H268F/S324T/N297A; leader 1-20 cleaved
Consider B2, for which the binding result in the assay with FcγRI and in the assay with FcγRIIb was “binds” throughout.

B3: G1069 (Fc fusion)
chain: EPKSCDKTHTCPPCPAPELLGGPSVFLFPPKPKDTLMISRTPEVTCVVVDVSFEDPEVKFNWYVDGVEVHNAKTKPREEQYASTYRVVSVLTVLHQDWLNGKEYKCKVTNKALPAPIEKTISKAKGQPREPQVYTLPPSRDELTKNQVSLTCLVKGFYPSDIAVEWESNGQPENNYKTTPPVLDSDGSFFLYSKLTVDKSRWQQGNVFSCSVMHEALHNHYTQKSLSLSPGKERKCCVECPPCP
notes: G045c background, H268F/S324T/N297A; leader 1-20 cleaved
As for B3, the binding result with FcγRI is recorded as “binds”.

B4: G1118 (Fc fusion)
chain: EPKSCDKTHTCPPCPAPPLLQGPSVFLFPPKPKDTLMISRTPEVTCVVVDVQFEDPEVKFNWYVDGVEVHNAKTKPREEQYNSTYRVVSVLTVLHQDWLNGKEYKCKVTNKALPAPIEKTISKAKGQPREPQVYTLPPSRDELTKNQVSLTCLVKGFYPSDIAVEWESNGQPENNYKTTPPVLDSDGSFFLYSKLTVDKSRWQQGNVFSCSVMHEALHNHYTQKSLSLSPGKERKCCVECPPCP
notes: G045c background, E233P/G236Q/S267Q/H268F/S324T; leader 1-20 cleaved
With B4, the binding result in the assay with FcγRI and in the assay with FcγRIIb was “binds” in each case.

B5: G1124 (Fc fusion)
chain: EPKSCDKTHTCPPCPAPPLLKGPSVFLFPPKPKDTLMISRTPEVTCVVVDVKFEDPEVKFNWYVDGVEVHNAKTKPREEQYNSTYRVVSVLTVLHQDWLNGKEYKCKVTNKALPAPIEKTISKAKGQPREPQVYTLPPSRDELTKNQVSLTCLVKGFYPSDIAVEWESNGQPENNYKTTPPVLDSDGSFFLYSKLTVDKSRWQQGNVFSCSVMHEALHNHYTQKSLSLSPGKERKCCVECPPCP
notes: G045c background, E233P/G236K/S267K/H268F/S324T; leader 1-20 cleaved
As to B5, the binding result in the assay with FcγRI and with FcγRIIb was “binds” in each case.

B6: G1082 (Fc fusion)
chain: EPKSCDKTHTCPPCPAPPLLHGPSVFLFPPKPKDTLMISRTPEVTCVVVDVSFEDPEVKFNWYVDGVEVHNAKTKPREEQYNSTYRVVSVLTVLHQDWLNGKEYKCKVTNKALPAPIEKTISKAKGQPREPQVYTLPPSRDELTKNQVSLTCLVKGFYPSDIAVEWESNGQPENNYKTTPPVLDSDGSFFLYSKLTVDKSRWQQGNVFSCSVMHEALHNHYTQKSLSLSPGKERKCCVECPPCP
notes: G045c background, E233P/G236H/H268F/S324T; leader 1-20 cleaved
For B6, the binding result with FcγRI is “binds”. The “CDC Inhibition (EC50, µg/mL)” value with C1q came to 5 µg/mL.

B7: G1089 (Fc fusion)
chain: EPKSCDKTHTCPPCPAPPLLRGPSVFLFPPKPKDTLMISRTPEVTCVVVDVSFEDPEVKFNWYVDGVEVHNAKTKPREEQYNSTYRVVSVLTVLHQDWLNGKEYKCKVTNKALPAPIEKTISKAKGQPREPQVYTLPPSRDELTKNQVSLTCLVKGFYPSDIAVEWESNGQPENNYKTTPPVLDSDGSFFLYSKLTVDKSRWQQGNVFSCSVMHEALHNHYTQKSLSLSPGKERKCCVECPPCP
notes: G045c background, E233P/G236R/H268F/S324T; leader 1-20 cleaved
Consider B7, for which the binding result with FcγRI and with FcγRIIb was “binds” throughout.

B8: G1075 (Fc fusion)
chain: EPKSCDKTHTCPPCPAPELLGGPSVFLFPPKPKDTLMISRTPEVTCVVVDVQFEDPEVKFNWYVDGVEVHNAKTKPREEQYASTYRVVSVLTVLHQDWLNGKEYKCKVTNKALPAPIEKTISKAKGQPREPQVYTLPPSRDELTKNQVSLTCLVKGFYPSDIAVEWESNGQPENNYKTTPPVLDSDGSFFLYSKLTVDKSRWQQGNVFSCSVMHEALHNHYTQKSLSLSPGKERKCCVECPPCP
notes: G045c background, S267Q/H268F/S324T/N297A; leader 1-20 cleaved
In the case of B8, in the assay with FcγRI, the binding result was “binds”. Moreover, the “CDC Inhibition (EC50, µg/mL)” value with C1q came out at 15 µg/mL.

B9: G1121 (Fc fusion)
chain: EPKSCDKTHTCPPCPAPPLLDGPSVFLFPPKPKDTLMISRTPEVTCVVVDVKFEDPEVKFNWYVDGVEVHNAKTKPREEQYNSTYRVVSVLTVLHQDWLNGKEYKCKVTNKALPAPIEKTISKAKGQPREPQVYTLPPSRDELTKNQVSLTCLVKGFYPSDIAVEWESNGQPENNYKTTPPVLDSDGSFFLYSKLTVDKSRWQQGNVFSCSVMHEALHNHYTQKSLSLSPGKERKCCVECPPCP
notes: G045c background, E233P/G236D/S267K/H268F/S324T; leader 1-20 cleaved
For the molecule B9, the binding result with FcγRI is “binds”.

B10: G1115 (Fc fusion)
chain: EPKSCDKTHTCPPCPAPPLLEGPSVFLFPPKPKDTLMISRTPEVTCVVVDVRFEDPEVKFNWYVDGVEVHNAKTKPREEQYNSTYRVVSVLTVLHQDWLNGKEYKCKVTNKALPAPIEKTISKAKGQPREPQVYTLPPSRDELTKNQVSLTCLVKGFYPSDIAVEWESNGQPENNYKTTPPVLDSDGSFFLYSKLTVDKSRWQQGNVFSCSVMHEALHNHYTQKSLSLSPGKERKCCVECPPCP
notes: G045c background, E233P/G236E/S267R/H268F/S324T; leader 1-20 cleaved
With B10, in the assay with FcγRI, the binding result is listed as “binds”. For the same molecule, the “CDC Inhibition (EC50, µg/mL)” value with C1q came out at 50 µg/mL.

B11: G1106 (Fc fusion)
chain: EPKSCDKTHTCPPCPAPPLLKGPSVFLFPPKPKDTLMISRTPEVTCVVVDVSFEDPEVKFNWYVDGVEVHNAKTKPREEQYNSTYRVVSVLTVLHQDWLNGKEYKCKVTNKALPAPIEKTISKAKGQPREPQVYTLPPSRDELTKNQVSLTCLVKGFYPSDIAVEWESNGQPENNYKTTPPVLDSDGSFFLYSKLTVDKSRWQQGNVFSCSVMHEALHNHYTQKSLSLSPGKERKCCVECPPCP
notes: G045c background, E233P/G236K/H268F/S324T; leader 1-20 cleaved
In the case of B11, the binding result with FcγRI is reported as “binds”.

B12: G1128 (Fc fusion)
chain: EPKSCDKTHTCPPCPAPPLLKGPSVFLFPPKPKDTLMISRTPEVTCVVVDVNFEDPEVKFNWYVDGVEVHNAKTKPREEQYNSTYRVVSVLTVLHQDWLNGKEYKCKVTNKALPAPIEKTISKAKGQPREPQVYTLPPSRDELTKNQVSLTCLVKGFYPSDIAVEWESNGQPENNYKTTPPVLDSDGSFFLYSKLTVDKSRWQQGNVFSCSVMHEALHNHYTQKSLSLSPGKERKCCVECPPCP
notes: G045c background, E233P/G236K/S267N/H268F/S324T; leader 1-20 cleaved
As for B12, the binding result with FcγRI and in the assay with FcγRIIb was “binds” in each case.

B13: G1110 (Fc fusion)
chain: EPKSCDKTHTCPPCPAPPLLDGPSVFLFPPKPKDTLMISRTPEVTCVVVDVRFEDPEVKFNWYVDGVEVHNAKTKPREEQYNSTYRVVSVLTVLHQDWLNGKEYKCKVTNKALPAPIEKTISKAKGQPREPQVYTLPPSRDELTKNQVSLTCLVKGFYPSDIAVEWESNGQPENNYKTTPPVLDSDGSFFLYSKLTVDKSRWQQGNVFSCSVMHEALHNHYTQKSLSLSPGKERKCCVECPPCP
notes: G045c background, E233P/G236D/S267R/H268F/S324T; leader 1-20 cleaved
As to B13, the binding result with FcγRI is “binds”. In the assay with C1q, the “CDC Inhibition (EC50, µg/mL)” value is 25 µg/mL.

B14: G1092 (Fc fusion)
chain: EPKSCDKTHTCPPCPAPELLGGPSVFLFPPKPKDTLMISRTPEVTCVVVDVDFEDPEVKFNWYVDGVEVHNAKTKPREEQYNSAYRVVSVLTVLHQDWLNGKEYKCKVTNKALPAPIEKTISKAKGQPREPQVYTLPPSRDELTKNQVSLTCLVKGFYPSDIAVEWESNGQPENNYKTTPPVLDSDGSFFLYSKLTVDKSRWQQGNVFSCSVMHEALHNHYTQKSLSLSPGKERKCCVECPPCP
notes: G045c background, S267D/H268F/S324T/T299A; leader 1-20 cleaved
As for B14, the binding result with FcγRI and in the assay with FcγRIIb was “binds” each time.

B15: G1120 (Fc fusion)
chain: EPKSCDKTHTCPPCPAPPLLRGPSVFLFPPKPKDTLMISRTPEVTCVVVDVQFEDPEVKFNWYVDGVEVHNAKTKPREEQYNSTYRVVSVLTVLHQDWLNGKEYKCKVTNKALPAPIEKTISKAKGQPREPQVYTLPPSRDELTKNQVSLTCLVKGFYPSDIAVEWESNGQPENNYKTTPPVLDSDGSFFLYSKLTVDKSRWQQGNVFSCSVMHEALHNHYTQKSLSLSPGKERKCCVECPPCP
notes: G045c background, E233P/G236R/S267Q/H268F/S324T; leader 1-20 cleaved
As for B15, the binding result with FcγRI was “binds”.

B16: G1130 (Fc fusion)
chain: EPKSCDKTHTCPPCPAPPLLNGPSVFLFPPKPKDTLMISRTPEVTCVVVDVKFEDPEVKFNWYVDGVEVHNAKTKPREEQYNSTYRVVSVLTVLHQDWLNGKEYKCKVTNKALPAPIEKTISKAKGQPREPQVYTLPPSRDELTKNQVSLTCLVKGFYPSDIAVEWESNGQPENNYKTTPPVLDSDGSFFLYSKLTVDKSRWQQGNVFSCSVMHEALHNHYTQKSLSLSPGKERKCCVECPPCP
notes: G045c background, E233P/G236N/S267K/H268F/S324T; leader 1-20 cleaved
Turning to B16, the binding result with FcγRI and with FcγRIIb was “binds” each time.
